The target in test [1] is variant E (trypsin mutant of SEQ ID NO:5) (human). The test can be described thus: cell-based or functional assay. As to conditions: scale: % of the serum concentration of anti-plasmin.
Test [2] deals with variant D (trypsin mutant of SEQ ID NO:5) (human). Put plainly: cell-based or functional assay. As to conditions: scale: % of the serum concentration of anti-plasmin.
Sequence of variant D (trypsin mutant of SEQ ID NO:5) (human) (chain, as listed by the source mutant limits assumed): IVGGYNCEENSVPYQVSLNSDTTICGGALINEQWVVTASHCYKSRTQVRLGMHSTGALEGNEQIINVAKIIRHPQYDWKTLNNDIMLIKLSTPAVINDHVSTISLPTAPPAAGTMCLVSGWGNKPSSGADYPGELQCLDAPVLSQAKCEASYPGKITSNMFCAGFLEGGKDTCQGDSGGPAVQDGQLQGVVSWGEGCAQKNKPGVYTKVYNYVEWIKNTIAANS

Sequence of variant E (trypsin mutant of SEQ ID NO:5) (human) (chain, as listed by the source mutant): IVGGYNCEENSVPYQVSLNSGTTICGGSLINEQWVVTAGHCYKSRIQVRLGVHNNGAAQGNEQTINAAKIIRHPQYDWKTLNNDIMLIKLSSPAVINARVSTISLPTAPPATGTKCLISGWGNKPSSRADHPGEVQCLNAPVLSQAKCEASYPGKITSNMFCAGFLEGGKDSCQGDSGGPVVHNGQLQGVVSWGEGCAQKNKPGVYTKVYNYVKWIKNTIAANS

For the substance “antiplasmin (from UniProt P08697 40-491)”, the IC50 (inhibitor concentration at 50% residual proteolytic activity; cleavage of fluorescently labelled TNF-alpha) came to 40 in test [1] and 5 in test [2].

These data come from patent US20060269538A1.
